Measured values as given in publication doi:10.1101/2025.06.10.658827.

Target: cyXR, xanthorhodopsin from an Antarctic filamentous cyanobacterium (genus Pseudanabaena) (Pseudanabaena (Antarctic MAG, Dry Valleys))
Assay: cryo-EM structure

“cyXR, xanthorhodopsin from an Antarctic filamentous cyanobacterium (genus Pseudanabaena) (natural protein)” was tested, and the stoichiometry N was 5.
